We go through 1 molecule from paper PMC4670726 (2015).

What all share (assay): FP competition (Ki)
In one assay the target is T1, MYO9B (Homo sapiens (Human), UniProt Q13459).
T1 chain: LERPTSLALD

The next assay has as its target T2, DOCK7 (Homo sapiens (Human), UniProt Q96N67).
T2 chain: RSAVRPASLNLNRSR

The target of a further assay is T3, IRS1 (Homo sapiens (Human), UniProt P35568).
T3 chain: RLARPTRLSL

For the next assay, the target named is T4, KSR2 (Homo sapiens (Human), UniProt Q6VAB6).
T4 chain: KKKSKPLNLKI

The target of the next assay is T5, PDE4B (Homo sapiens (Human), UniProt Q07343).
T5 chain: EGDGISRPTTLPLTTLPS

Another assay addresses T6, AAKG2 (Homo sapiens (Human), UniProt Q9UGJ0).
T6 chain: SQKRRSLRVHIP

The target of the next assay is T7, DCX (Mus musculus (Mouse), UniProt O88809).
T7 chain: SLRKHKVDLYLPLSL

The target in a further assay is T8, RHDF1 (Homo sapiens (Human), UniProt Q96CC6).
T8 chain: SLQRKKPPWLKLDIPS

For another assay, the target named is T9, CCNT2 (Homo sapiens (Human), UniProt O60583).
T9 chain: KKEKSGSLKLRIPIP

The target of a further assay is T10, APBA2 (Homo sapiens (Human), UniProt Q99767).
T10 chain: RHEARPKSLNLL

The target in a further assay is T11, GAB3b (Homo sapiens (Human), UniProt Q8WWW8).
T11 chain: KPQRKSRPPPLDLRNLS

Another assay deals with T12, JAZF1 (Homo sapiens (Human), UniProt Q86VZ6).
T12 chain: SLKKKIQPKLSLTLS

For the next assay, the target named is T13, DOCK5 (Homo sapiens (Human), UniProt Q9H7D0).
T13 chain: KAQRPKSLQLM

B1: JNK1 (protein)
chain: DNNFYSVEIGDSTFTVLKRYQNLKPIGSGAQGIVCAAYDAILERNVAIKKLSRPFQNQTHAKRAYRELVLMKCVNHKNIIGLLNVFTPQKSLEEFQDVYIVMELMDANLCQVIQMELDHERMSYLLYQMLCGIKHLHSAGIIHRDLKPSNIVVKSDCTLKILDFGLARTAGTSFMMTPYVVTRYYRAPEVILGMGYKENVDLWSVGCIMGEMVCHKILFPGRDYIDQWNKVIEQLGTPCPEFMKKLQPTVRTYVENRPKYAGYSFEKLFPDVLFPADSEHNKLKASQARDLLSKMLVIDASKRISVDEALQHPYINVWYDPSEAEAPPPKIPDKQLDEREHTIEEWKELIYKEVMDLE
The term Kd denotes a measure of binding affinity in units of concentration. Lower therefore signals a tighter complex. As to B1, the Kd with MYO9B was 15.9 µM; with DOCK7, 7.3 µM; with IRS1, 3.5 µM; with KSR2, 24.7 µM; with PDE4B, 16.4 µM; in the assay with AAKG2, > 100 µM. The Kd with DCX is 16.7 µM; with RHDF1 it was > 100 µM; in the assay with CCNT2, > 100 µM; with APBA2, 10.8 µM; in the assay with GAB3b, 13.2 µM; with JAZF1, > 100 µM. The Kd with DOCK5 was found to be 5.1 µM.
